Data published in US11925667B2, “Engineered therapeutic probiotic system and method” (priority 2018, dated 2024).

B1: Brevicoryne brassicae myrosinase BMY1 (Brevicoryne brassicae) (protein)
chain: MDYKFPKDFMFGTSTASYQIEGGWNEDGKGENIWDRLVHTSPEVIKDGTNGDIACDSYHKYKEDVAIIKDLNLKFYRFSISWARIAPSGVMNSLEPKGIAYYNNLINELIKNDIIPLVTMYHWDLPQYLQDLGGWVNPIMSDYFKEYARVLFTYFGDRVKWWITFNEPIAVCKGYSIKAYAPNLNLKTTGHYLAGHTQLIAHGKAYRLYEEMFKPTQNGKISISISGVFFMPKNAESDDDIETAERANQFERGWFGHPVYKGDYPPIMKKWVDQKSKEEGLPWSKLPKFTKDEIKLLKGTADFYALNHYSSRLVTFGSDPNPNFNPDASYVTSVDEAWLKPNETPYIIPVPEGLRKLLIWLKNEYGNPQLLITENGYGDDGQLDDFEKISYLKNYLNATLQAMYEDKCNVIGYTVWSLLDNFEWFYGYSIHFGLVKIDFNDPQRTRTKRESYTYFKNVVSTGKP
B2: Armoracia rusticana myrosinase I1, SEQ ID NO: 6 (Armoracia rusticana) (protein)
chain: QNVCNPACKAKEPFNCDNTLTFNQTGFPKNFTFGAATSAYQIEGAAHRALNGWDYFTHRYPEKVPDRSSGDLACDSYDLYKDDVKLLKRMNVQAYRLSIAWSRVLPKGRLIGGVDENGITYYNNLINELKANGIEPYVTIFHWDVPQTLEDEYGGFLSPRIVEDFTNFAELLFQRFGDRVKFWITLNQPYSLATKGYGDGSYPPGRCTDCEFGGDSGTEPYIVAHHQLLAHAETVSLYRKRYQKFQGGKIGTTLIGRWFQPLNQTSNLDKAAAKRAFDFFVGWFLDPLVYGEYPKIMKEMVGDRMPKFTPQESDLVKGSLDFLGLNYYVTQYATDAPPSIPTQPSAITDPRVTLGYYRNGIPIGVQAASFVYYPTGFRQILNHIKDNYKNPLTYITENGVADFGNLTLANALADIGRIQNHCSHLSCLKCAIADGCNVGGYFAWSFMDNYEFGNGYTLRFGMNWVNFTNPADRKQKDSGKWFSKFLAK
notes: elsewhere used as YebF-I1 fusion

Assays:
[1] = substrate: C=CC/C(=N/OS(=O)(=O)O)S[C@@H]1O[C@H](CO)[C@@H](O)[C@H](O)[C@H]1O; assay: Myrosinase activity assay (glucose release from sinigrin hydrolysis), BMY1; type: biochemical, Brevicoryne brassicae
Description: Screening for improved β-thioglucosidase. The activity and stability of myrosinase, a β-thioglucosidase that hydrolyzes glucosinolate to sulforaphane, varies at differing pH and temperature; in a preferred embodiment the selected enzyme needs to function under physiological colorectal conditions. The healthy colon pH averages 6.6, while it is 7.0 and 6.7 in patients with adenoma and carcinoma, respectively. In addition, the temperature of the human intestinal tract ranges from 36° C. to 40° C. depending on the individual's metabolic state. In the illustrative example five plant-derived myrosinase orthologues with minimal glycosylation sites and the absence of the co-factor-binding sites using the BLAST search and the Enzyme Function Initiative-Enzyme Similarity Tool (EFI-EST), are compared to the well-characterized myrosinases from Brevicoryne brassicae (BMY1) and Arabidopsis thaliana (TGG1) (FIG. 2a and FIG. 7).
(§1) Gene cloning, protein expression and purification. Myrosinase genes are optimized for E. coli expression and cloned into the pET28b expression vector. The plasmids are transformed into E. coli BL21 (DE3) cultured in lysogeny broth (LB) (BD, Le Pont de Claix, France) at 37° C., 225 rpm to OD600 0.6 followed by 0.5 mM isopropyl β-D-1-thiogalactopyranoside (IPTG) induction at 16° C., 180 rpm for 16 hours. Cells are harvested, resuspended in lysis buffer (50 mM Tris-Cl, 300 mM NaCl, 10% glycerol, 1 mM dithiothreitol [DTT], pH 8.0) and lysed using Emulsiflex C-3 (Avestin). Expressed myrosinases are purified by IMAC Ni-NTA purification followed by Hi-Load Superdex 200 size exclusion column chromatography (GE, Uppsala, Sweden). The purified protein is concentrated and stored at −80° C. Pilot scale protein purification and enzymatic assay is conducted.
(§2) Myrosinase screening assay. The enzymatic reaction is measured for the release of glucose resulting from sinigrin hydrolysis. The reaction is conducted in sodium phosphate-buffered solution supplied in the Amplex® Red Glucose/Glucose Oxidase Assay Kit (Thermo Fisher Scientific, Geel, Belgium). The reaction buffer is prepared at different pH values (6.0, 6.5, 7.4 and 8.0) and at different reaction temperatures (34° C., 37° C., and 40° C.). The reaction is prepared using 0.1 μM purified myrosinase added to 1× Amplex® Red Glucose Assay reaction mixture and was kick-started with the corresponding concentration of sinigrin. The reaction can be measured at 560 nm absorbance and fluorescence (λex=540 nm, λem=590 nm) using a Synergy H1 Multi-Mode microtiter plate reader (BioTek®, Winooski, USA). The reaction initial velocity (VO) is determined and fitted into a Michaelis-Menten curve. Vmax and KM are determined by fitting into the Michaelis-Menten equation (Eq. 1) using GraphPad Prism Software. ^v=Vmax*[Sinigrin]/(KM+[Sinigrin]) (Eq.1)
(§3) Table S1|Myrosinase activity assay screening under various pH and temperature conditions (n=3 independent experiments, each measurement performed in triplicates; mean[…].).

[2] = substrate: C=CC/C(=N/OS(=O)(=O)O)S[C@@H]1O[C@H](CO)[C@@H](O)[C@H](O)[C@H]1O; assay: Myrosinase activity assay (glucose release from sinigrin hydrolysis), I1; type: biochemical, Armoracia rusticana
Text: In a preferred embodiment, the myrosinases derived from Armoracia rusticana (I1) and Brassica oleacea (A6) have a better stability and catalytic efficiency in various temperatures and pH values when compared with those derived from BMY1 and TGG1 (Table 1). In a preferred illustrative embodiment I1 myrosinase is selected owing to its Km value and improved kcat at the colorectal ambient temperature and pH (FIG. 2c, 2d and Table 1). By comparing the modeled-I1 myrosinase protein structure against that of the BMY1 myrosinase, the critical side chain residues involved in glucose-ring recognition and the glutamic acid that served as a nucleophile during catalysis are conserved. According to the claimed invention the improved catalytic efficiency of the I1 myrosinase is correlated to its pI value (pI=7.90) and the overall positively charged surface (FIG. 8) that contributes to better structural stability.
as §1, §2, §3

[3] = other: pH 6.0, 37° C., pH 6.0, 37.0 °C
[4] = other: pH 6.5, 37° C., pH 6.5, 37.0 °C
[5] = other: pH 7.4, 34° C., pH 7.4, 34.0 °C
[6] = other: pH 7.4, 37° C., pH 7.4, 37.0 °C
[7] = other: pH 7.4, 40° C., pH 7.4, 40.0 °C
[8] = other: pH 8.0, 37° C., pH 8.0, 37.0 °C

Protein	Km [1, 3]	Km [1, 4]	Km [1, 5]	Km [1, 6]	Km [1, 7]	Km [1, 8]	Km [2, 3]	Km [2, 4]	Km [2, 5]	Km [2, 6]	Km [2, 7]	Km [2, 8]
B1	153 ± 17 µM	399 ± 86 µM	76 ± 6 µM	67 ± 1 µM	342 ± 67 µM	217 ± 87 µM						
B2							192 ± 40 µM	183 ± 19 µM	49 ± 4 µM	87 ± 7 µM	87 ± 9 µM	192 ± 17 µM
